Source: PMC12328585 (Nature Communications, 2025)

B1: non-tagged Net4ΔC (gift from the Koch lab) (domain or fragment, mouse)
chain: CEKACNPRMGNLALGRKLRADTMCGQNATELFCFYSENADLTCRQPKCDKCNAAHSHLAHPPSAMADSSFRFPRTWWQSAEDVHREKIQLDLEAEFYFTHLIMVFKSPRPAAMVLDRSQDFGKTWKPYKYFATNCSATFGLEDDVVKKGAICTSRYSNPFPCTGGEVIFRALSPPYDIENPYSAKVQEQLKITNLRVRLLKRQSCPCQINDLNAKPHHFMHYAVYDFIVKGSCFCNGHADQCLPVEGFRPIKAPGAFHVVHGRCMCKHNTAGSHCQHCAPLYNDRPWEAADGRTGAPNECRTCKCNGHADTCHFDVNVWEASGNRSGGVCNNCQHNTEGQHCQRCKPGFYRDLRRPFSAPDACKACSCHPVGSAILPFSSVTFCDPSNGDCPCKPGVAGPHCDRCMVGYWGFGDYGCRPCDCAGSCDPLTGDC

Columns and labels:
Experiment in all cases: ELISA
[1] = molecular target: non-tagged Net4ΔC (gift from the Koch lab) (mouse) (UniProt Q9JI33)
[2] = molecular target: recombinant mouse laminin 111 (Lm111) (mouse, UniProt P19137 25-3083; P02469 22-1786; P02468 34-1607)
[3] = molecular target: B1

Kd [3] [nM]	Molecule	further results
–	γ1ΔC D285R (from UniProt P11047 37-341) (domain or fragment)	Kd [1]: 1.57 nM
–	B1	Kd [2]: 0.39 ± 0.07 nM
4 ± 0.4	γ1ΔC D266R (domain or fragment) QAAMDECTDEGGRPQRCMPEFVNAAFNVTVVATNTCGTPPEEYCVQTGVTGVTKSCHLCDAGQPHLQHGAAFLTDYNNQADTTWWQSQTMLAGVQYPSSINLTLHLGKAFDITYVRLKFHTSRPESFAIYKRTREDGPWIPYQYYSGSCENTYSKANRGFIRTGGDEQQALCTDEFSDISPLTGGNVAFSTLEGRPSAYNFDNSPVLQEWVTATDIRVTLNRLNTFGDEVFNRPKVLKSYYYAISDFAVGGRCKCNGHASECMKNEFDKLVCNCKHNTYGVDCEKCLPFFNDRPWRRATAESASECLP	–
1.89 ± 0.2	γ1ΔC R149E (domain or fragment) QAAMDECTDEGGRPQRCMPEFVNAAFNVTVVATNTCGTPPEEYCVQTGVTGVTKSCHLCDAGQPHLQHGAAFLTDYNNQADTTWWQSQTMLAGVQYPSSINLTLHLGKAFDITYVELKFHTSRPESFAIYKRTREDGPWIPYQYYSGSCENTYSKANRGFIRTGGDEQQALCTDEFSDISPLTGGNVAFSTLEGRPSAYNFDNSPVLQEWVTATDIRVTLNRLNTFGDEVFNDPKVLKSYYYAISDFAVGGRCKCNGHASECMKNEFDKLVCNCKHNTYGVDCEKCLPFFNDRPWRRATAESASECLP	–
2.28 ± 0.43	γ1ΔC Y147R (domain or fragment) QAAMDECTDEGGRPQRCMPEFVNAAFNVTVVATNTCGTPPEEYCVQTGVTGVTKSCHLCDAGQPHLQHGAAFLTDYNNQADTTWWQSQTMLAGVQYPSSINLTLHLGKAFDITRVRLKFHTSRPESFAIYKRTREDGPWIPYQYYSGSCENTYSKANRGFIRTGGDEQQALCTDEFSDISPLTGGNVAFSTLEGRPSAYNFDNSPVLQEWVTATDIRVTLNRLNTFGDEVFNDPKVLKSYYYAISDFAVGGRCKCNGHASECMKNEFDKLVCNCKHNTYGVDCEKCLPFFNDRPWRRATAESASECLP	–
2.93 ± 0.51	γ1ΔC (N-terminal fragment of laminin γ1), human, C-terminally flag-tagged (domain or fragment, N-glycans at N60 and N134) QAAMDECTDEGGRPQRCMPEFVNAAFNVTVVATNTCGTPPEEYCVQTGVTGVTKSCHLCDAGQPHLQHGAAFLTDYNNQADTTWWQSQTMLAGVQYPSSINLTLHLGKAFDITYVRLKFHTSRPESFAIYKRTWEDGPWIPYQYYSGSCENTYSKANRGFIRTGGDEQQALCTDEFSDISPLTGGNVAFSTLEGRPSAYNFDNSPVLQEWVTATDISVTLNRLNTFGDEVFNDPKVLKSYYYAISDFAVGGRCKCNGHASECMKNEFDKLVCNCKHNTYGVDCEKCLPFFNDRPWRRATAESASECLPCDCNGRSQECYFDPELYRSTGHGGHCTNCQDNTDGAHCERCRENFFRLGNNEACSSCHCSPVGSLSTQCDSYGRCSCKPGVMGDKCDRCQPGFHSLTEAGCRPCSCDPSGSIDECNIETGRCVCKDNVEGFNCERCKPGFFNLESSNPRGCTP	–
